Laboratory results from publication doi:10.1101/2021.01.27.428455 (bioRxiv, 2021).
Values joined by “and” are separate entries in the source; they are usually repeats but may differ in a detail not shown here. Equal entries are not always repeated. Where two headings read alike, the source gives them in different places.

B1: Lactococcus lactis Csm3 Asp30Ala (natural protein)
chain: MKLVIEGTIVLKTGMHIGGSSDFSAIGAVASPVVRDTLTRLPLIPGSSLKGKMRYLLAKELNNGILLNEPNNDQDEILRLFGSSEKDKIRRARLKFNDIKLSNLAELETFNVSSTEVKFENTINRKTAVANPRQIERVIAGSKFDFEIFYNLDDIKEVEKDFENIKQGFDLLEFDYLGGHGTRGSGRIAFENLSVITAVGNFEKINTLNEILGA

How the values were obtained:
Test in all cases: cryo-EM structure
[1] = target: B1
cryo-EM structure [2] = target: the molecule itself
cryo-EM structure [3] = target: the molecule itself; remark: listed apart in the source

Row | Binder | binding result [1] | stoichiometry N (cryo-EM structure [2]) | stoichiometry N (cryo-EM structure [3])
1 | Lactococcus lactis Csm2 with N-terminal His6-tag (natural protein) TELKIGNEKVNSTNFGDFAEKAIRGINHKPFVNSKGGEQKITTSKIRGILELVNKVYNRVINTNDVELSENILADIAYIKVKIAYESGREPVVKDFIQRTAFTAAITDVMNQRTRESFLLFARYVESLIAYFKFYGGKD | binds | 3 and 2 | 
2 | B1 |  | 3 | 4
